The labels stand for the following.
B1: CPEB3 Ribozyme (parent)
chain: GGGGGCCACAGCAGAAGCGUUCACGUCGCGGCCCCUGUCAGAUUCUGGUGAAUCUGCGAAUUCUGCUGU

The data set covers variants of B1. Kind of data set: self-cleavage, relative activity (ratio to wild type); higher = more cleavage; co-transcriptional.
For A15G G47U, the self-cleavage turned out to be 1.04. Next, A15G G47C: 1.05; A15G C57U: 0.294; A15C A40U: 0.451. To A15U U46A belongs 0.985; to A15U U46G, 0.898; to G14U C35A, 0.257.

Regarding A15C G30C, the self-cleavage was 0.189. Consider G14U U36G, for which the self-cleavage stood at 0.142. For G14U U36C, the self-cleavage came to 0.535. With G14A C34U, the self-cleavage came out at 0.751.

For A15G U38A, the self-cleavage is 0.877. Next, A15C U26G: 0.586. Next, A15U U44C: 0.516; A15U U44G: 0.713.

Turning to G14U C22G, the self-cleavage came out at 0.172. A15C G68A: the self-cleavage came out at 0.966. Next, A15G G37C: 0.239; G14U A51U: 0.739. Next, G14A G31U: 0.207; A15C U21G: 0.157; A15G G17C: 0.138.

Regarding A15U C35A, the self-cleavage came out at 0.192. With A15U C35G, the self-cleavage was found to be 0.187. As for G14U C33G, the self-cleavage was 0.341. Turning to A15U U67C, the self-cleavage stood at 0.827. Next, G14A U53G: 0.344.

Consider G14A U53A, for which the self-cleavage was 0.362. Next, A15C C27A: 0.091; A15C G47C: 0.894; A15C G47A: 0.889.

Take A15U U62A: the self-cleavage came to 1.01. To A15G G41A belongs 0.732; to A15G G41C, 0.777; to G14A U38C, 0.501. To G14A U38G belongs 0.152.

As to A15C G65C, the self-cleavage was 0.277. To A15C G65U belongs 0.411; to G14U A59G, 0.753; to G14U A59C, 0.309. Next, A15U U55G: 0.335; A15G G30C: 0.618. As for G14A U49G, the self-cleavage amounted to 0.842. To G14A U49A belongs 0.742; to G14A U36G, 0.134. To A15U G17C belongs 0.171; to A15G A23C, 0.919; to A15C A51U, 0.826. With A15C A51G, the self-cleavage was 0.897. To A15C G25C belongs 0.186; to A15C G25U, 0.192. To A16C C24U belongs 0.164. Next, A16C C24A: 0.161. Take G14C G47C: the self-cleavage is 0.794. As to A15C G17C, the self-cleavage amounted to 0.131. To G14U U61A belongs 0.461.

For A15C C66G, the self-cleavage stood at 0.351. With G14U U49A, the self-cleavage stood at 0.858. Next, A15C C29A: 0.297. As for A15G C66G, the self-cleavage turned out to be 0.862. To G14U A16G belongs 0.504; to G14C U38A, 0.308; to G14C U38C, 0.284. Next, G14A G68U: 0.765; G14A G68A: 0.866; G14C U53C: 0.19. Next, G14C U53A: 0.326; G14A C29G: 0.167; G14A C29A: 0.23. Consider A15C A59G, for which the self-cleavage was 0.798. A15C A59U: the self-cleavage came out at 0.353.

Regarding G14U U55A, the self-cleavage amounted to 0.325. As for A15U G28A, the self-cleavage is 0.161. Next, A15U C24A: 0.299; A15C U67A: 0.916. For A15C U67C, the self-cleavage was found to be 0.888. To A15U C33G belongs 0.294; to A15C C57G, 0.269; to A15C C57A, 0.282. As to G14U U46G, the self-cleavage worked out at 0.871. As for A15C G19U, the self-cleavage came to 0.164. Consider A15C G19A, for which the self-cleavage was determined as 0.185.

Turning to A15C G19C, the self-cleavage worked out at 0.214. Turning to A15U C57U, the self-cleavage turned out to be 0.323. To A15G C24U belongs 0.87; to A15G C24G, 0.405; to A15U G48U, 0.9.

On to A15U G48C, for which the self-cleavage worked out at 0.965. To A15G U62G belongs 0.94; to A16C A59C, 0.106; to A16C A59U, 0.221. G14A C22U: the self-cleavage stood at 0.17. With G14A C22A, the self-cleavage stood at 0.178. Turning to A15G A51U, the self-cleavage worked out at 0.963. To A15G A51G belongs 1.05; to G14A C57U, 0.229; to G14U A52G, 0.851. With G14U G17C, the self-cleavage worked out at 0.128. For G14U A15U, the self-cleavage is 0.358. Next, G14U A15C: 0.415. Next, G14U G41U: 0.276. In the case of G14U G41A, the self-cleavage was 0.206.

As to G14A G47A, the self-cleavage worked out at 0.826. For the variant G14C U26A, the self-cleavage was 0.346.

With A15G A40C, the self-cleavage was 0.631.

As for A15G A40U, the self-cleavage turned out to be 0.851. Turning to G14C C35A, the self-cleavage was determined as 0.173. On to A15U G41A, for which the self-cleavage is 0.28.

On to A15C U43A, for which the self-cleavage worked out at 0.459.

A15C U43G: the self-cleavage was 0.491.

As for A15G U44A, the self-cleavage worked out at 0.987. With A15G U44G, the self-cleavage turned out to be 0.954. Next, A15G U44C: 0.99; A15G C22A: 0.191. Next, A15G C22G: 0.157; A15C U62C: 0.841; A15C U62A: 0.912. Next, A15C U62G: 1.02; G14C U55G: 0.185; G14A U20C: 0.181.

As to A15C G50U, the self-cleavage amounted to 0.878. On to A15C C24G, for which the self-cleavage amounted to 0.269. For the variant G14A A52G, the self-cleavage was 0.805.

G14C U61C: the self-cleavage is 0.241. On to A13U U53C, for which the self-cleavage is 0.357.

Take G14C: the self-cleavage was found to be 0.689. With G14U, the self-cleavage was 0.855. Turning to G14A, the self-cleavage came to 0.832.

Turning to A13U U62G, the self-cleavage came to 0.299. Next, A13U U62C: 0.278.

Consider G14A G37C, for which the self-cleavage was determined as 0.114. Consider G14A G37U, for which the self-cleavage turned out to be 0.138. To A15G U53A belongs 0.893.

Turning to G14U U62A, the self-cleavage is 0.482.

Turning to A15C G41U, the self-cleavage was 0.463.

For the variant A13U U67G, the self-cleavage amounted to 0.827.

With G14C G48U, the self-cleavage turned out to be 0.805. To G14C A23G belongs 0.365. For G14C G30U, the self-cleavage is 0.157.

As to G14C G30C, the self-cleavage stood at 0.142.

For G14A G17A, the self-cleavage worked out at 0.134. Next, G14A G17C: 0.175; A15U G65U: 0.47; A15U G65A: 0.753.

For G14A A15U, the self-cleavage was 0.424. Next, G14A A15G: 0.823; A15U U36C: 0.557.

Consider A16C A60C, for which the self-cleavage worked out at 0.215.

Regarding A15G G28C, the self-cleavage amounted to 0.165. Next, A15C G56C: 0.446; A15G U64A: 0.845; A15G U64C: 0.939.

As for A15G U20C, the self-cleavage was 0.126.

As for G14A C32U, the self-cleavage is 0.802. With G14A C54G, the self-cleavage turned out to be 0.312.

For the variant G14A C54U, the self-cleavage is 0.755.

On to G14C A52C, for which the self-cleavage is 0.459. To G14C A52U belongs 0.562; to G14C A51U, 0.489. To G14U U20C belongs 0.219; to A15U C63G, 0.764. Next, A15C C33U: 0.911. Consider A16C A40G, for which the self-cleavage was 0.16.

With A15C C32U, the self-cleavage came to 0.853. With A15U C32U, the self-cleavage worked out at 0.913. As to G14U G37A, the self-cleavage was 0.197. Next, A15U G50A: 0.943.

The values are drawn from the RNAGym collection of RNA variant scans (doi:10.7554/elife.80360).
